Test results: publication doi:10.1101/2021.08.28.458007v1

Substrate: O=C1O[C@H]([C@@H](O)CO)C(=O)C1=O
Assay: purified protein
[1] = co-substrate GSH (2 mM), 50 mM phosphate pH 6.8, 0.2 mM EDTA
[2] = co-substrate GSH, 50 mM phosphate pH 6.8, 0.2 mM EDTA

| Protein | Km (co-substrate GSH, marked 'This study' (footnote a)) | Km [1] | kcat [1] | Km [2] | kcat [2] |
| --- | --- | --- | --- | --- | --- |
| HsGSTO1-1 (Homo sapiens) (protein) SGESARSLGKGSAPPGPVPEGSIRIYSMRFCPFAERTRLVLKAKGIRHEVININLKNKPEWFFKKNPFGLVPVLENSQGQLIYESAITCEYLDEAYPGKKLLPDDPYEKACQKMILELFSKVPSLVGSFIRSQNKEDYAGLKEEFRKEFTKLEEVLTNKKTTFFGGNSISMIDYLIWPWFERLEAMKLNECVDHTPKLKLWMAAMKEDPTVSALLTSEKDWQGFLELYLQNSPEACDYGL | 138.2 (±27.07) μM |  |  |  |  |
| PgDHAR (Cenchrus americanus) (protein) MAVEVCVKAAVGAPDILGDCPFSQRVLLTLEEKKITYEMKLVDLSNKPEWFLKISPEGKVPVFNSGDGKWIADSDVITQVIEEKFPTPSLVTPPEYASVGSKIFPSFVKFLKSKDASDGSEKALLDELQALDEHLKAHGPYISGENVSAADLSLGPKLFHLQVALEHFKGWKIPENLTSVHAYTKALFSRESFVKTKPANQYLIAGWAPKVNA |  | 159.2 (±11.4) μM | 2271.663 s⁻¹ |  |  |
| PgDHAR (Cenchrus americanus; D19A) (protein) MAVEVCVKAAVGAPDILGACPFSQRVLLTLEEKKITYEMKLVDLSNKPEWFLKISPEGKVPVFNSGDGKWIADSDVITQVIEEKFPTPSLVTPPEYASVGSKIFPSFVKFLKSKDASDGSEKALLDELQALDEHLKAHGPYISGENVSAADLSLGPKLFHLQVALEHFKGWKIPENLTSVHAYTKALFSRESFVKTKPANQYLIAGWAPKVNA |  |  |  | 245.7 (±75.7) μM | 20.35 s⁻¹ |
| PgDHAR (Cenchrus americanus; K8A) (protein) MAVEVCVAAAVGAPDILGDCPFSQRVLLTLEEKKITYEMKLVDLSNKPEWFLKISPEGKVPVFNSGDGKWIADSDVITQVIEEKFPTPSLVTPPEYASVGSKIFPSFVKFLKSKDASDGSEKALLDELQALDEHLKAHGPYISGENVSAADLSLGPKLFHLQVALEHFKGWKIPENLTSVHAYTKALFSRESFVKTKPANQYLIAGWAPKVNA |  |  |  | 1842 (±414.3) μM | 89.34 s⁻¹ |
